Among the data in the RNAGym collection of RNA variant scans (doi:10.7554/elife.90254) are self-cleavage values, retold here.

B1: LINE1-mini (parent)
chain: GGCAGAGCUCAACACAGCGUGGCAAAGUGGCUGUGGCUAGACUGCC

The variants in the data set derive from B1. Put plainly: self-cleavage, relative activity (ratio to wild type); higher = more cleavage; in vitro, sequencing; the parent is a self-cleaving ribozyme.
Take C13U A25C: the self-cleavage came to 0.13.

Consider C13U G35A, for which the self-cleavage was determined as 0.71.

As to C13U G35U, the self-cleavage turned out to be 0.18.

With C13U G35C, the self-cleavage amounted to 0.22.

C13U G19A: the self-cleavage was 0.16.

As for C13U G19U, the self-cleavage was 0.23.

Consider C13U G19C, for which the self-cleavage was 0.07.

Take C13U G44C: the self-cleavage was 0.06.

As for C13U G44A, the self-cleavage came out at 0.1.

On to C13U G44U, for which the self-cleavage is 0.1.

Take C13U G21U: the self-cleavage came out at 0.18.

Regarding C13U G21A, the self-cleavage stood at 0.22.

Regarding C13U G21C, the self-cleavage was found to be 0.25.

With C13U G36A, the self-cleavage turned out to be 0.63.

Consider C13U G36C, for which the self-cleavage came to 0.11.

Turning to C13U G36U, the self-cleavage came out at 0.15.

On to C13U G40C, for which the self-cleavage worked out at 0.08.

As for C13U G40A, the self-cleavage was found to be 0.1.

With C13U G40U, the self-cleavage was found to be 0.09.

Turning to C13G G40U, the self-cleavage is 0.08.

C13G G40A: the self-cleavage was determined as 0.13.

C13G G40C: the self-cleavage was 0.14.

Take C13U U34C: the self-cleavage was found to be 0.14.

For the variant C13U U34G, the self-cleavage worked out at 0.05.

C13U U34A: the self-cleavage is 0.09.

A14C G30A: the self-cleavage was found to be 0.21.

On to A14C G30C, for which the self-cleavage amounted to 0.07.

As for A14C G30U, the self-cleavage was found to be 0.07.

As to C13G A24G, the self-cleavage was 0.22.

Consider C13G A24U, for which the self-cleavage turned out to be 0.16.

C13G G21U: the self-cleavage was found to be 0.31.

As for C13G G21C, the self-cleavage came out at 0.33.

For C13G G21A, the self-cleavage is 0.38.

Consider C13U C15U, for which the self-cleavage turned out to be 0.13.

C13U C15A: the self-cleavage was determined as 0.08.

Regarding C13U C15G, the self-cleavage is 0.08.

In the case of C13U C18G, the self-cleavage came out at 0.05.

Regarding C13U C18A, the self-cleavage worked out at 0.07.

Consider C13U C18U, for which the self-cleavage came to 0.12.

In the case of A14G A24U, the self-cleavage turned out to be 0.43.

On to A14G A24C, for which the self-cleavage came out at 0.27.

In the case of A14G A24G, the self-cleavage stood at 0.76.

Regarding C13U A14U, the self-cleavage turned out to be 0.1.

Turning to C13U A14G, the self-cleavage worked out at 0.17.

Take C13U A14C: the self-cleavage was 0.09.

For C13G G35A, the self-cleavage was 0.07.

For the variant C13G G35U, the self-cleavage stood at 0.85.

With C13G G35C, the self-cleavage came out at 0.81.

Turning to A14C U38A, the self-cleavage stood at 0.21.

A14C U38C: the self-cleavage was 0.07.

A14C U38G: the self-cleavage was found to be 0.02.

As for A14C C46U, the self-cleavage was 0.18.

Turning to A14C C46G, the self-cleavage amounted to 0.08.

A14C C46A: the self-cleavage was 0.13.

Take A14C G36C: the self-cleavage turned out to be 0.02.

A14C G36A: the self-cleavage stood at 0.15.

Turning to A14C G36U, the self-cleavage came out at 0.09.

C13U G17A: the self-cleavage turned out to be 0.1.

C13U G17C: the self-cleavage worked out at 0.11.

On to C13U G17U, for which the self-cleavage was 0.12.

Turning to C13G C31A, the self-cleavage turned out to be 0.16.

Consider C13G C31U, for which the self-cleavage turned out to be 0.13.

On to C13G C31G, for which the self-cleavage is 0.05.

As to A14C C42A, the self-cleavage turned out to be 0.07.

Take A14C C42G: the self-cleavage worked out at 0.07.

With A14C C42U, the self-cleavage was 0.07.

As to C13G U20G, the self-cleavage worked out at 0.13.

For the variant C13G U20A, the self-cleavage amounted to 0.13.

Take C13G U20C: the self-cleavage was determined as 0.1.

As for C13U G33C, the self-cleavage is 0.06.

As for C13U G33A, the self-cleavage turned out to be 0.07.

Turning to C13U G33U, the self-cleavage came out at 0.06.

On to A14G G17A, for which the self-cleavage amounted to 0.17.

For A14G G17C, the self-cleavage turned out to be 0.09.

As to A14G C15G, the self-cleavage is 0.08.

Take A14G C15U: the self-cleavage came out at 0.11.

A14G C15A: the self-cleavage was 0.08.

As for C13U U20G, the self-cleavage is 0.1.

For the variant C13U U20C, the self-cleavage was found to be 0.09.

On to C13U U20A, for which the self-cleavage came out at 0.17.

With C13G G30C, the self-cleavage was determined as 0.12.

As to C13G G30A, the self-cleavage is 0.15.

On to C13G G30U, for which the self-cleavage was determined as 0.19.

As for A14C C37G, the self-cleavage is 0.11.

For the variant A14C C37A, the self-cleavage amounted to 0.08.

With A14C C37U, the self-cleavage worked out at 0.02.

On to C13G G33C, for which the self-cleavage was 0.04.

Turning to C13G G33U, the self-cleavage came out at 0.03.

C13G G33A: the self-cleavage amounted to 0.11.

Take C13U G29C: the self-cleavage stood at 0.09.

For the variant C13U G29A, the self-cleavage was determined as 0.28.

On to C13U G29U, for which the self-cleavage was found to be 0.21.

On to A14G C31G, for which the self-cleavage was determined as 0.04.

For the variant A14G C31U, the self-cleavage came to 0.04.

With A14G C31A, the self-cleavage was found to be 0.09.

As for A14C G22C, the self-cleavage is 0.1.

For the variant A14C G22U, the self-cleavage was 0.06.

On to A14C G22A, for which the self-cleavage was 0.18.

On to A14C A41G, for which the self-cleavage was found to be 0.05.

As to A14C A41U, the self-cleavage worked out at 0.06.

A14C A41C: the self-cleavage was 0.04.

C13U C37U: the self-cleavage stood at 0.11.

Consider C13U C37A, for which the self-cleavage came out at 0.27.

Turning to C13U C37G, the self-cleavage amounted to 0.1.

On to C13U A26C, for which the self-cleavage was found to be 0.24.

As for C13U A26G, the self-cleavage was found to be 0.14.

Take C13U A26U: the self-cleavage was determined as 0.15.

In the case of A14C G19C, the self-cleavage was 0.03.

Take A14C G19U: the self-cleavage came out at 0.1.

With A14C G19A, the self-cleavage was determined as 0.1.

For C13U A16U, the self-cleavage is 0.13.

Take C13U A16C: the self-cleavage amounted to 0.1.

As for C13U A16G, the self-cleavage was found to be 0.09.

For A14C A16G, the self-cleavage was determined as 0.1.

With A14C A16U, the self-cleavage came to 0.12.

In the case of A14C A16C, the self-cleavage was determined as 0.08.

Turning to C13U U38A, the self-cleavage was determined as 0.04.

With C13U U38C, the self-cleavage was determined as 0.1.

Consider C13U U38G, for which the self-cleavage is 0.02.

In the case of C13G U34A, the self-cleavage was 0.04.

On to C13G U34C, for which the self-cleavage amounted to 0.1.

Regarding C13G U34G, the self-cleavage stood at 0.03.

Regarding A14G C45G, the self-cleavage is 0.2.

As to A14G C45A, the self-cleavage was determined as 0.38.

For A14G C45U, the self-cleavage turned out to be 0.63.

In the case of A14C A26C, the self-cleavage was 0.16.

A14C A26U: the self-cleavage turned out to be 0.09.

As to A14C A26G, the self-cleavage amounted to 0.06.

With A14G C46A, the self-cleavage is 0.2.

A14G C46G: the self-cleavage is 0.14.

A14G C46U: the self-cleavage was 0.26.

As to A14C G35A, the self-cleavage is 0.09.

With A14C G35U, the self-cleavage was 0.07.

With A14C G35C, the self-cleavage amounted to 0.04.

Consider C13U U32C, for which the self-cleavage came to 0.08.

For C13U U32A, the self-cleavage came to 0.11.

As to C13U U32G, the self-cleavage stood at 0.21.

As to C13U C45G, the self-cleavage worked out at 0.06.

As to C13U C45U, the self-cleavage worked out at 0.13.

Take C13U C45A: the self-cleavage is 0.05.

Take C13G C23U: the self-cleavage was determined as 0.46.

As to C13G C23A, the self-cleavage came to 0.29.

Take C13G C23G: the self-cleavage is 0.13.

For the variant A14C A25C, the self-cleavage came to 0.07.

With A14C A25G, the self-cleavage came to 0.07.

As for A14C A25U, the self-cleavage was determined as 0.09.

In the case of C13G C45A, the self-cleavage is 0.25.

For the variant C13G C45G, the self-cleavage was 0.23.

With C13G C45U, the self-cleavage was found to be 0.26.

For the variant C13G G29C, the self-cleavage is 0.11.

In the case of C13G G29U, the self-cleavage turned out to be 0.33.

For the variant C13G G29A, the self-cleavage was 0.19.

On to A14G A26C, for which the self-cleavage stood at 0.67.

With A14G A26G, the self-cleavage is 0.43.

Turning to A14G A26U, the self-cleavage stood at 0.59.

With C13G G27A, the self-cleavage came to 0.27.

C13G G27C: the self-cleavage was 0.08.

For the variant C13G G27U, the self-cleavage was determined as 0.26.

A14C G27C: the self-cleavage came to 0.07.

Turning to A14C G27A, the self-cleavage is 0.09.

Regarding A14C G27U, the self-cleavage is 0.09.

On to A14C G29A, for which the self-cleavage is 0.29.

Consider A14C G29C, for which the self-cleavage is 0.04.

In the case of A14C G29U, the self-cleavage was found to be 0.13.

As to C13U C46U, the self-cleavage was determined as 0.3.

Take C13U C46A: the self-cleavage worked out at 0.22.

Turning to C13U C46G, the self-cleavage came to 0.09.
